From article PMC6514445, “Enterococcal PcfF Is a Ribbon-Helix-Helix Protein That Recruits the Relaxase PcfG Through Binding and Bending of the oriT Sequence” (Frontiers in Microbiology, 2019)

What was measured:
[1] = molecular target: PcfF1-54 (RHH domain, GST tag cleaved off) (Enterococcus faecalis (plasmid pCF10)) (UniProt Q5G3N6); experiment: SEC; Superdex 75 10/300 GL with molecular mass standards; PcfF1-54 after GST cleavage, absorbance at 254 nm
PcfF [2] = molecular target: T1, PcfF (Enterococcus faecalis plasmid pCF10, UniProt Q5G3N6 1-118); experiment: EMSA; EMSA: 30 nM DNA, 10 mM Tris/HCl pH 7.5, 200 mM NaCl (150 mM NaCl with PcfG), 15 min at room temperature; 20% native PAGE in TAE pH 8.0 at 4 C; conditions: protein: recombinant; tags: N-terminal GST, 3C-cleaved (4 extra residues left); chain copies: 2; label: 5' FITC on sense strand
T1 sequence: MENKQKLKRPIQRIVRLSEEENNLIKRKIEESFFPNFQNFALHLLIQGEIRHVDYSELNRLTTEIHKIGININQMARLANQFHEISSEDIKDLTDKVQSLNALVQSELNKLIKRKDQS

PcfF I70S/R77S = PcfF I70S/R77S (Enterococcus faecalis plasmid pCF10, UniProt Q5G3N6 1-118, I70S;R77S); experiment: EMSA; 100 nM protein; as wild type; EMSA: 30 nM DNA, 10 mM Tris/HCl pH 7.5, 200 mM NaCl (150 mM NaCl with PcfG), 15 min at room temperature; 20% native PAGE in TAE pH 8.0 at 4 C; conditions: protein: recombinant; chain copies: 2; label: 5' FITC on sense strand
PcfF R77S = PcfF R77S (Enterococcus faecalis plasmid pCF10, UniProt Q5G3N6 1-118, R77S); experiment: as above; conditions: protein: recombinant; chain copies: 2; label: 5' FITC on sense strand
PcfF N73A/Q74A = PcfF N73A/Q74A (Enterococcus faecalis plasmid pCF10, UniProt Q5G3N6 1-118, N73A;Q74A); experiment: as above; conditions: protein: recombinant; chain copies: 2; label: 5' FITC on sense strand
PcfF I70S = PcfF I70S (Enterococcus faecalis plasmid pCF10, UniProt Q5G3N6 1-118, I70S); experiment: as above; conditions: protein: recombinant; chain copies: 2; label: 5' FITC on sense strand
PcfF R13L/I14A = PcfF R13L/I14A (Enterococcus faecalis plasmid pCF10, UniProt Q5G3N6 1-118, R13L;I14A); experiment: EMSA; 100 nM protein; Results also say marked decrease; EMSA: 30 nM DNA, 10 mM Tris/HCl pH 7.5, 200 mM NaCl (150 mM NaCl with PcfG), 15 min at room temperature; 20% native PAGE in TAE pH 8.0 at 4 C; conditions: protein: recombinant; chain copies: 2; label: 5' FITC on sense strand
PcfF R13L = PcfF R13L (Enterococcus faecalis plasmid pCF10, UniProt Q5G3N6 1-118, R13L); experiment: as above; conditions: protein: recombinant; chain copies: 2; label: 5' FITC on sense strand
[3] = molecular target: the molecule itself; experiment: GEMMA (gas-phase electrophoretic mobility macromolecule analysis); SEC peak of wild type PcfF dialysed against 100 mM ammonium acetate pH 7.8, diluted to 0.025 mg/mL with 0.005% Tween-20
[4] = molecular target: the molecule itself; experiment: SEC; Superdex 200 10/300 GL Increase; 20 mM Tris/HCl pH 7.5, 200 mM NaCl; PcfF and its variants, self-association
[5] = molecular target: the molecule itself; experiment: crystal structure; SeMet-PcfF, sitting drop at 20°C, 0.2 M lithium sulfate, 0.1 M Bis-Tris pH 6.5, 25% PEG 3350; space group P2_(1), 4 molecules in the asymmetric unit; 1.9 Å
PcfF [6] = molecular target: T1, PcfF; experiment: EMSA (DNA bending); EMSA: 30 nM DNA, 10 mM Tris/HCl pH 7.5, 200 mM NaCl (150 mM NaCl with PcfG), 15 min at room temperature; 20% native PAGE in TAE pH 8.0 at 4 C; conditions: protein: recombinant; tags: N-terminal GST, 3C-cleaved (4 extra residues left); chain copies: 2
PcfF [7] = molecular target: T1, PcfF; experiment: EMSA (DNA bending); more pronounced shift than end positions; bending; EMSA: 30 nM DNA, 10 mM Tris/HCl pH 7.5, 200 mM NaCl (150 mM NaCl with PcfG), 15 min at room temperature; 20% native PAGE in TAE pH 8.0 at 4 C; conditions: protein: recombinant; tags: N-terminal GST, 3C-cleaved (4 extra residues left); chain copies: 2

## PcfF1-54 (RHH domain, GST tag cleaved off) (from UniProt Q5G3N6 1-54) (domain or fragment)
[1]
  stoichiometry N: 2

B1: oriT 40 bp (dsDNA)
DNA 1: TCGCAACATGCTAGCATGTTGCTCCGCTTGCAAAAAGAAA
DNA 2: TTTCTTTTTGCAAGCGGAGCAACATGCTAGCATGTTGCGA
PcfF [2]
  Kd: ~100 nM
PcfF I70S/R77S
  binding result: binds
PcfF R77S
  binding result: binds
PcfF N73A/Q74A
  binding result: binds
PcfF I70S
  binding result: binds
PcfF R13L/I14A
  binding result: no binding
PcfF R13L
  binding result: no binding

B2: PcfF (wild type, full length, GST tag cleaved off) (natural protein)
chain: MENKQKLKRPIQRIVRLSEEENNLIKRKIEESFFPNFQNFALHLLIQGEIRHVDYSELNRLTTEIHKIGININQMARLANQFHEISSEDIKDLTDKVQSLNALVQSELNKLIKRKDQS
notes: PcfF accessory factor encoded by plasmid pCF10 of Enterococcus faecalis; GenBank AAW51324; 118 residues, 14 kDa; Cloned in pGEX-6P-2 (BamHI/XhoI); the same is likely here; also called wt PcfF; accessory factor PcfF; source: E. coli BL21(DE3), purified (glutathione-agarose, SEC, 3C protease cleavage, second SEC, reverse purification); not shown: GST, N-terminal, cleaved
[3]
  stoichiometry N: ~2

B3: PcfF N73A/Q74A (as run on SEC) (natural protein)
chain: MENKQKLKRPIQRIVRLSEEENNLIKRKIEESFFPNFQNFALHLLIQGEIRHVDYSELNRLTTEIHKIGINIAAMARLANQFHEISSEDIKDLTDKVQSLNALVQSELNKLIKRKDQS
notes: PcfF of plasmid pCF10, Enterococcus faecalis; GenBank AAW51324; 118 residues; source: E. coli BL21(DE3), purified (glutathione-agarose, SEC)
[4]
  binding result: binds

B4: PcfF R77S (as run on SEC) (natural protein)
chain: MENKQKLKRPIQRIVRLSEEENNLIKRKIEESFFPNFQNFALHLLIQGEIRHVDYSELNRLTTEIHKIGININQMASLANQFHEISSEDIKDLTDKVQSLNALVQSELNKLIKRKDQS
notes: as for B3
[4]
  binding result: binds

B5: PcfF I70S (as run on SEC) (natural protein)
chain: MENKQKLKRPIQRIVRLSEEENNLIKRKIEESFFPNFQNFALHLLIQGEIRHVDYSELNRLTTEIHKIGSNINQMARLANQFHEISSEDIKDLTDKVQSLNALVQSELNKLIKRKDQS
notes: as for B3
[4]
  binding result: binds

B6: Selenomethionine-derivatized PcfF (full length) (natural protein)
chain: MENKQKLKRPIQRIVRLSEEENNLIKRKIEESFFPNFQNFALHLLIQGEIRHVDYSELNRLTTEIHKIGININQMARLANQFHEISSEDIKDLTDKVQSLNALVQSELNKLIKRKDQS
modifications: selenomethionine in place of methionine
notes: PcfF accessory factor encoded by plasmid pCF10 of Enterococcus faecalis; GenBank AAW51324; 118 residues; Probably with the GST cleaved off, as for the wild type; 4 molecules in the asymmetric unit (dimer of dimers); also called SeMet-PcfF; source: E. coli BL21(DE3) in M9 minimal medium with L-selenomethionine, purified as wild type PcfF with 0.5 mM TCEP
[5]
  binding result: binds

B7: PcfF Q105A (natural protein)
chain: MENKQKLKRPIQRIVRLSEEENNLIKRKIEESFFPNFQNFALHLLIQGEIRHVDYSELNRLTTEIHKIGININQMARLANQFHEISSEDIKDLTDKVQSLNALVASELNKLIKRKDQS
notes: PcfF of plasmid pCF10, Enterococcus faecalis; GenBank AAW51324; 118 residues; also called PcfF_(Q105A/W) variants; source: E. coli BL21(DE3), purified (glutathione-agarose, SEC)
[4]
  binding result: binds

B8: PcfF R13L/R16L (natural protein)
chain: MENKQKLKRPIQLIVLLSEEENNLIKRKIEESFFPNFQNFALHLLIQGEIRHVDYSELNRLTTEIHKIGININQMARLANQFHEISSEDIKDLTDKVQSLNALVQSELNKLIKRKDQS
notes: as for B3
[4]
  binding result: binds

B9: PcfF I14A (natural protein)
chain: MENKQKLKRPIQRAVRLSEEENNLIKRKIEESFFPNFQNFALHLLIQGEIRHVDYSELNRLTTEIHKIGININQMARLANQFHEISSEDIKDLTDKVQSLNALVQSELNKLIKRKDQS
notes: as for B3
[4]
  binding result: binds

B10: PcfF R13L/I14A/R16L (natural protein)
chain: MENKQKLKRPIQLAVLLSEEENNLIKRKIEESFFPNFQNFALHLLIQGEIRHVDYSELNRLTTEIHKIGININQMARLANQFHEISSEDIKDLTDKVQSLNALVQSELNKLIKRKDQS
notes: as for B3
[4]
  binding result: binds

B11: PcfF R13L (natural protein)
chain: MENKQKLKRPIQLIVRLSEEENNLIKRKIEESFFPNFQNFALHLLIQGEIRHVDYSELNRLTTEIHKIGININQMARLANQFHEISSEDIKDLTDKVQSLNALVQSELNKLIKRKDQS
notes: as for B3
[4]
  binding result: binds

B12: PcfF Q105W (natural protein)
chain: MENKQKLKRPIQRIVRLSEEENNLIKRKIEESFFPNFQNFALHLLIQGEIRHVDYSELNRLTTEIHKIGININQMARLANQFHEISSEDIKDLTDKVQSLNALVWSELNKLIKRKDQS
notes: as for B7
[4]
  binding result: binds

B13: PcfF I70S/R77S (as run on SEC) (natural protein)
chain: MENKQKLKRPIQRIVRLSEEENNLIKRKIEESFFPNFQNFALHLLIQGEIRHVDYSELNRLTTEIHKIGSNINQMASLANQFHEISSEDIKDLTDKVQSLNALVQSELNKLIKRKDQS
notes: as for B3
[4]
  binding result: binds

B14: PcfF R16L (natural protein)
chain: MENKQKLKRPIQRIVLLSEEENNLIKRKIEESFFPNFQNFALHLLIQGEIRHVDYSELNRLTTEIHKIGININQMARLANQFHEISSEDIKDLTDKVQSLNALVQSELNKLIKRKDQS
notes: as for B3
[4]
  binding result: binds

B15: PcfF R13L/I14A (natural protein)
chain: MENKQKLKRPIQLAVRLSEEENNLIKRKIEESFFPNFQNFALHLLIQGEIRHVDYSELNRLTTEIHKIGININQMARLANQFHEISSEDIKDLTDKVQSLNALVQSELNKLIKRKDQS
notes: as for B3
[4]
  binding result: binds

B16: oriT 3' 120 bp (dsDNA)
DNA 1: GTCTCGAGTTTAAAGATATCCAGCTGCCCGGGAGGCCTTCGCGAAATATTGGTACCCCATGGAATCGAGGGATCCTCTAGTCGCAACATGCTAGCATGTTGCTCCGCTTGCAAAAAGAAA
DNA 2: TTTCTTTTTGCAAGCGGAGCAACATGCTAGCATGTTGCGACTAGAGGATCCCTCGATTCCATGGGGTACCAATATTTCGCGAAGGCCTCCCGGGCAGCTGGATATCTTTAAACTCGAGAC
PcfF [6]
  binding result: binds

B17: random 44 bp DNA (dsDNA)
DNA 1: AGTGAACTGAAAGAAGAAACACACGTTGCATGAAGAGCTATATA
DNA 2: TATATAGCTCTTCATGCAACGTGTGTTTCTTCTTTCAGTTCACT
PcfF [2]
  binding result: no binding

B18: oriT middle 120 bp (dsDNA)
DNA 1: GCGAAATATTGGTACCCCATGGAATCGAGGGATCCTCTAGTCGCAACATGCTAGCATGTTGCTCCGCTTGCAAAAAGAAAAGTCGACACGCGTAGATCTGCTAGCATCGATCCATGGACT
DNA 2: AGTCCATGGATCGATGCTAGCAGATCTACGCGTGTCGACTTTTCTTTTTGCAAGCGGAGCAACATGCTAGCATGTTGCGACTAGAGGATCCCTCGATTCCATGGGGTACCAATATTTCGC
PcfF [7]
  binding result: binds
